Measurements: publication PMC12642504 (bioRxiv, 2025)

Molecular target: BG505 MD39.3 SOSIP trimer (soluble Env trimer, SPR analyte) (HIV-1 group M subtype A, isolate BG505, stabilised)
Assay: SPR

B1: V2-Int1 antibody (PCT64-18D), human IgG1 (antibody, V domains shown)
VH: EVQLVESGGGLVKPGGSLRLSCVGSGFAFSDAWMTWVRQAPGKGLEWVGHMRPTPEGGAKDYAAPVKGRFTVSRDDSKNTLYLQMNSLKIEDTAVYYCMTGVETGDFWSDYYAQYYDPYLIDVWGKGTTVTVSS
VL: EIVLTQSPGTLSLSPGDRATLSCRATQSVDSNYLAWYQQKPGQAPRLLIYGTSSRAAGIPDRFSGSGSGTDFTLTIDRLEPEDFAVYYCRQYGTSFTFGPGTKVDIK
  Kd: 770 nM
